# According to paper PMC8709496, “Highly Active Thermophilic L-Asparaginase from Melioribacter roseus Represents a Novel Large Group of Type II Bacterial L-Asparaginases from Chlorobi-Ignavibacteriae-Bacteroidetes Clade” (International Journal of Molecular Sciences, 2021):
# B1: MrAII (type II L-asparaginase from M. roseus) (Melioribacter roseus P3M-2) (protein)
# chain: MKNILIIFTGGTFSMKIDRETNSAVPYYHGEELLKIIPEADKKANISVYEFGNYPGPHMTPELMLELSEIVKKYINQNDTDGIIITHGTDTLEETAYFLDLTVKTEKPIVVIGAMKTSSEPDWDGPKNLLDAISIINNPNSGNMGVLVCLNGEINAASEVTKTHTEDIETFHSLDFGSLGFVENDRVIFNRLPRKLETFETAKINSNVDLIKVYAGMNEKFFKFSADSGADGLVVEAMGVGNVPPKAFEGIKYVIEKGIPVVLVSRCPAGETLDIYGYEGAGKWLKKAGVIFSDYLNGQKARIKLIVCLGITNEIAKLRSMFEDEQ
# notes: synthetic native gene (981 nt, printed as 327 aa) in pET-28a(+) NheI/SalI, E. coli BL21(DE3); Q-Sepharose purified
# Substrate: NC(=O)C[C@H](N)C(=O)O
# Assay: purified protein
# Format: biochemical, Melioribacter roseus
# Details: borate buffer 0.025 M, pH 9.3, 70 °C
protein,measurement,value
B1,Km,1400 µM
